From patent US20050221433A1

Target: recombinant human IL-18 (human) (UniProt Q14116)
Assay: cell-based or functional assay

recombinant human IL-18 (human), sequence (Q14116 37-193 limits assumed): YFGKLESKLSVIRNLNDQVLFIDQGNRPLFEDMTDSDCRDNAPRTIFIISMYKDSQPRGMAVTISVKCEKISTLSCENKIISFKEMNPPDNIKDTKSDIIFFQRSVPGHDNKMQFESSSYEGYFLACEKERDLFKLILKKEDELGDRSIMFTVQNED

Binder	IC50 (M), HEK293/NFkB-luciferase bioassay [M]
mIL18BPd (C45S).mFc (Fc fusion, not shown: a dimerising Fc or GST) TSAPQTTATVLTGSSKDPSSSWSPAVPTKQYPALDVIWPEKEVPLNGTLTLSCTACSRFPYFSILYWLGNGSFIEHLPGRLKEGHTSREHRNTSTWLHRALVLEELSPTLRSTNFSCLFVDPGQVAQYHIILAQLWDGLKTAPPPSQETLSSHSPVSRSAGPGVA	1.67e-10
mIL18BPd.mFc (Fc fusion, not shown: a dimerising Fc or GST) TSAPQTTATVLTGSSKDPCSSWSPAVPTKQYPALDVIWPEKEVPLNGTLTLSCTACSRFPYFSILYWLGNGSFIEHLPGRLKEGHTSREHRNTSTWLHRALVLEELSPTLRSTNFSCLFVDPGQVAQYHIILAQLWDGLKTAPPPSQETLSSHSPVSRSAGPGVA	9.6e-11
